For two variants, ratio to parent results are on record in article PMC10302205, “Saccharomyces cerevisiae Δ9-desaturase Ole1 forms a supercomplex with Slc1 and Dga1” (The Journal of Biological Chemistry, 2023).

First the molecules themselves.
B1: NubG-Dga1 (full-length NubG-Dga1 fusion) [S. cerevisiae] / Ole1-Myc-Cub-LexA-VP16 [S. cerevisiae] (parent complex)
chain 1: MSGTFNDIRRRKKEEGSPTAGITERHENKSLSSIDKREQTLKPQLESCCPLATPFERRLQTLAVAWHTSSFVLFSIFTLFAISTPALWVLAIPYMIYFFFDRSPATGEVVNRYSLRFRSLPIWKWYCDYFPISLIKTVNLKPTFTLSKNKRVNEKNYKIRLWPTKYSINLKSNSTIDYRNQECTGPTYLFGYHPHGIGALGAFGAFATEGCNYSKIFPGIPISLMTLVTQFHIPLYRDYLLALGISSVSRKNALRTLSKNQSICIVVGGARESLLSSTNGTQLILNKRKGFIKLAIQTGNINLVPVFAFGEVDCYNVLSTKKDSVLGKMQLWFKENFGFTIPIFYARGLFNYDFGLLPFRAPINVVVGRPIYVEKKITNPPDDVVNHFHDLYIAELKRLYYENREKYGVPDAELKIVG
chain 2: MPTSGTTIELIDDQFPKDDSASSGIVDEVDLTEANILATGLNKKAPRIVNGFGSLMGSKEMVSVEFDKKGNEKKSNLDRLLEKDNQEKEEAKTKIHISEQPWTLNNWHQHLNWLNMVLVCGMPMIGWYFALSGKVPLHLNVFLFSVFYYAVGGVSITAGYHRLWSHRSYSAHWPLRLFYAIFGCASVEGSAKWWGHSHRIHHRYTDTLRDPYDARRGLWYSHMGWMLLKPNPKYKARADITDMTDDWTIRFQHRHYILLMLLTAFVIPTLICGYFFNDYMGGLIYAGFIRVFVIQQATFCINSLAHYIGTQPFDDRRTPRDNWITAIVTFGEGYHNFHHEFPTDYRNAIKWYQYDPTKVIIYLTSLVGLAYDLKKFSQNAIEEALIQQEQKKINKKKAKINWGPVLTDLPMWDKQTFLAKSKENKGLVIISGIVHDVSGYISEHPGGETLIKTALGKDATKAFSGGVYRHSNAAQNVLADMRVAVIKESKNSAIRMASKRGEIYETGKFF

In the experiment the parent is B1. As to the kind of experiment: integrated membrane yeast two-hybrid assay (β-galactosidase reporter); n = 3 biological replicates; parent: 1; read off a plot.
In the case of chain 1 K397A, chain 1 R398A, chain 1 D411A, chain 1 E413A, chain 1 K415A, the ratio to parent is around 0.2.

For chain 1 R404A, chain 1 E405A, chain 1 K406A, the ratio to parent is around 0.84.
